Data on two molecules can be found in article PMC8126939, “The TBC1D31/praja2 complex controls primary ciliogenesis through PKA‐directed OFD1 ubiquitylation” (The EMBO Journal, 2021).

Test [1] has as its target T1, GST-praja2_(550–610) (human, UniProt O43164 550-610, fluorescent dye on primary amines (NHS-ester labelling)).
T1 construct: praja2 (PJA2), human, residues 550-610; The results call P1-P3 synthetic peptides; the methods describe recombinant GST fusions; also called P2; source: recombinant, purified (GST Trap, Superdex 75 gel filtration)
T1 sequence (looked up): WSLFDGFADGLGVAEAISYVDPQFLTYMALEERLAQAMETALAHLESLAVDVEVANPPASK
The test is described as follows: MST; Monolith NT 115; GST-praja2 fragments labelled with NHS-ester dye, TBC1D31 peptides titrated (16-point 1:1 dilution); 25°C, 20 mM NaP, 200 mM NaCl, 1 mM DTT, 0.05% Tween-20, pH 7.4. Conditions: both partners purified.

Test [2] has as its target T2, GST-praja2_(530–570) (human, UniProt O43164 530-570, fluorescent dye on primary amines (NHS-ester labelling)).
T2 construct: praja2 (PJA2), human, residues 530-570; The results call P1-P3 synthetic peptides; the methods describe recombinant GST fusions; also called P1; source: recombinant, purified (GST Trap, Superdex 75 gel filtration)
T2 chain (looked up): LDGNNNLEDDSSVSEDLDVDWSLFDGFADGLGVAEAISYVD
The test is described as above. Conditions: both partners purified.

The target in test [3] is T3, GST-praja2_(530–570) (human, UniProt O43164 530-570, fluorescent dye on primary amines (NHS-ester labelling)).
T3 chain: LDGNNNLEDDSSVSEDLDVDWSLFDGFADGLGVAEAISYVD
Description: MST.

B1: peptide of the C-terminus segment of TBC1D31 (peptide)
peptide: WDTTGQNLIKKVRNLRQRLTARARHRCQTPHLLAA
notes: TBC1D31, human, C-terminus segment; also called WA35 TBC1D31; wild-type TBC1D31 peptide; source: synthetic peptide (bought: Shanghai Apeptide Co., Ltd)
Turning to B1, the dissociation constant (Kd) in test [1] was determined as 80 µM; in test [2] it was 37 µM.

B2: double AA mutant TBC1D31 peptide (peptide)
peptide: WDTTGQNLIKKVANLAQRLTARARHRCQTPHLLAA
notes: TBC1D31, human, C-terminus segment peptide with R948A and R951A; also called TBC1D31AA; R948A-R951A; source: synthetic peptide (bought: Shanghai Apeptide Co., Ltd)
B2: the binding result in test [2] is recorded as “binds”. In test [3], the Kd is around 65 µM.

As a reminder, the Kd is the free concentration of one partner at which half of the binding sites on the other are occupied at equilibrium, for simple one-to-one binding. Read a high Kd as lower affinity.
